Laboratory results published in paper PMC3673099.

Tests used:
[1] = molecular target: CyPet-(pre-SUMO3)-YPet (human) (UniProt P55854)
[2] = molecular target: CyPet-(pre-SUMO1)-YPet (human) (UniProt P63165)
[3] = molecular target: CyPet-(pre-SUMO2)-YPet (human) (UniProt P61956)
Chain of UniProt P61956 (P61956 whole entry): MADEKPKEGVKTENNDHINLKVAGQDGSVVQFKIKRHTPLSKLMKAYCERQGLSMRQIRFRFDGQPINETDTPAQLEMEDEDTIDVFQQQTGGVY

Chain of UniProt P63165 (P63165 1-97): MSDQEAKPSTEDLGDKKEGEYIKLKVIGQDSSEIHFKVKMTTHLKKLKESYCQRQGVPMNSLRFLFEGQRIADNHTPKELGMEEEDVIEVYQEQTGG
Chain of UniProt P55854 (P55854 1-92): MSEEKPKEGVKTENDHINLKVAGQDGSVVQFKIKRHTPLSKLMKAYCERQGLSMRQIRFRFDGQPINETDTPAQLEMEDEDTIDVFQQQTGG

A Km of the SENP1 catalytic domain for CyPet-(pre-SUMO3)-YPet, FRET-based protease assay, Michaelis-Menten fit, real-time detection (internal calibration) [1] of 1.99 µM, a Km of the SENP1 catalytic domain for CyPet-(pre-SUMO3)-YPet, FRET-based protease assay, Michaelis-Menten fit, standard curve analysis [1] of 3.75 µM and a Km of the SENP1 catalytic domain for CyPet-(pre-SUMO1)-YPet, FRET-based protease assay, Michaelis-Menten fit, real-time detection (internal calibration) [2] of 0.14 µM were found for catalytic domain of SENP1 (enzyme) in this work. It also gave a Km of the SENP1 catalytic domain for CyPet-(pre-SUMO1)-YPet, FRET-based protease assay, Michaelis-Menten fit, standard curve analysis [2] of 0.18 µM, a Km of the SENP1 catalytic domain for CyPet-(pre-SUMO2)-YPet, FRET-based protease assay, Michaelis-Menten fit, real-time detection (internal calibration) [3] of 0.17 µM and a Km of the SENP1 catalytic domain for CyPet-(pre-SUMO2)-YPet, FRET-based protease assay, Michaelis-Menten fit, standard curve analysis [3] of 0.17 µM.
